Data published in a protein production outcome set (Wang et al. 2014).

Experiment: label from the status in PepcDB records

## MGGAVLAQPPGPTPTDGVPLRSSQPAVQVEPAPTTATAAPIERLFPKLTGRVVDTAQLLTPSAQVYLAQMLERLEQTTTDQVVVATVPSLGGHSIEEFGLQLGRHWGIGRKDKNNGVLLLVAKDDRKVRIEVGYGLEGRLNDIVAHFIIDGSIIPYFKDDLYSSGIIAGATSIVSVLSSTDRPMLVYRSVEKNWYQDIEWMWWFERLFYLVFVGVPLFGFLTQWRSGDDSPVVASGDSARRETRAERDTGSSSSAFDWFDSSSSSSSSSSDSFSGGGGSFGGGGASGSW
  protein production: failed

## MTYLFVAAGGALGSTLRYWLSGLIAGAIGQSFPWGTLVINISGSIVIGAFATLTGPDGRVFIPGDWRQFFMVGVCGGYTTFSSFSLQTLTLAQEGQGLWAAANVVLSVVFCLIGVWLGHVGAVLINEGV
  protein production: failed

## MSAKIKIIPFGGVRENGKNMYAVDVNGGIYILDCGLKYPENELLGIDVVIPDWTYLRENKDRIVAVFLTHGHADAIGALPYFLSEFNVPVFGSEMTIALAKINVADEPKIKKFDDFHVIDEKTEIDFGDVVVSFFSTTHSIPESLGIDLKTDEGQIIYTGDFKFDQTAKPGYQTDYARLGAIGQAGVLALLSDSANAENPAMNASEQSLAESIEETFHYRDSRVIVACVASNILRIQQVFDAAAKTGRKVCLTGKDLEKIVNTAMELGKLTFDADLLVTTDQLDDLAPNEIVILQTGKMGEPIKAIQRMANKQEKDFNIQAGDLVYITTTPSHAMDTTVAQTRDMVYRAGGEVKAISDELNSSGHAYKRDLQLMLNLMKPKFLIPIQGEYRLLNAHADAAMELGIPADHIFILSKGDVLTYAQGDMGLGEGIDVSDTMIDGIGVGDIGNIVLRDRKVLADDGIFIAVVTIDRKKKQIVADPKITSRGFVYVKANKDLMQESSQIIRKAVQNNLDNKEFDWGHLKQDVREHLSHYLFEQTHRRPVILPVIMEVNQHHRRTTKEKPGAGATNEKPVTKSAPKAKAEQTAKPTHKPRRNRKRRPTKKTTTDNA
  protein production: failed

## MRSGFRRCCPAIQRFKKVQRILLIVLFLNLAVAFAKIIYGTLTSTLSMTADGYHSLFDGVSNIVGLVGSFIAARPPDKEHPYGHQKYETIASIFIALLLLYVGVEIFRHALDRFLIRSVPEVTAISFLVIIGTMCINYLVTRYEYRQGLALRSQVLIADSLHTKSDIYVSLSVILSLAAVKLGFPLLDPLIAVLISFLIFRAGFRIMKESSKVLLDMSRLEEDEICNLVLGVEGVLGCHKIRTRGGMGDIRIDMHVLVQADLTLEEAHLISHRVSKMLKAEYNDVTDVVVHLEPALPQGSYSKKTT
  protein production: failed

## MGAIPKTGTISPEQKDSQEKNLFQKIWSWEIGVIPLPLYTVLAVIIILAAYYNELPANMLGGFAIIMILGVFLGDIGQRIPILKDIGGPAILSLFVPSFLVFYNVLNSTSLDAVTNLMKTSNFLYFYIACLVVGSILGMNRIVLIQGFIRMFVPLVAGTIAAVAAGILVGFIFGYSAYDSFFFVVVPIIAGGIGEGILPLSIAYSQILGSSADVFVSQLVPAAIIGNVFAIICAALMKKLGDKRPDLNGNGRLVKSKKANEIFNQKEAEAKIDFKLMGAGVLLACTFFIFGGLLEKFIFIPGAILMIISAAAVKYANILPKKMEEGAYQLYKFISSSFTWPLMVGLGILFIPLDDVASVISIPFVIICISVVIAMIGSGYFVGKLMNMYPVESAIVTCCHSGLGGTGDVAILSASGRMGLMPFAQISTRLGGAGTVICATVLLRFFTS
  protein production: failed

## MRKDETSNTSPDISAAQPASALRYHLRPPRRNDGAAIHQLVSECPPLDLNSLYAYLLLCEHHAHTCVVAESPGGRIDGFVSAYLLPTRPDVLFVWQVAVHSRARGHRLGRAMLGHILERQECRHVRHLETTVGPDNQASRRTFAGLAGERGAHVSEQPFFDRQAFGGADHDDEMLLRIGPFTHPPH
  protein production: failed

## MDSGQIILNLVIIVITFFVAAFFVACEFALVQTRPSALEEEQKKRDKPSKRIATSLHMVRNLNEYLSTTQVGVSLAGIILGWIGEQTTEHFVLDFLSLFNLSVSTAVLRGISIVIGVFLLTYLEVVLTEIVPKNIAIDMPLKVMAVITTPLRWFHVMFYPFVWLLNVSSAGVVKMLGIPVANEDNDVYSQAEILNLSRNAVTGGELERNDYLYMERAFEFNDKIAKDIMIDRTQLVVIDINDTVKQAIRVYLQKRFSRLPVVANNDKDKILGYVYNYDLIRQGEVDDDIRVNKLLRNIITIPETTPIQAILQKMIDKQTPIVVVVDEYGGTSGIVTDKDIYEELFGTVNDEIDNVSNEYIEKQADGTYRISGKMTIYDFERYFKTDLQEFEDSDVVTLTGYILDNFPKIQAGDTIQIGNFNFKALDFENAYINWFEVSAQRDSTPDDHNDDQTQD
  protein production: failed

## MGPERHLSGAPARMATVVLGGDTMGPERIFPNQTEELGHQGPSEGTGDWSSEEPEEEQEETGSGPAGYSYQPLNQDPEQEEVELAPVGDGDVVADIQDRIQALGLHLPDPPLESEDEDEEGATALNNHSSIPMDPEHVELVKRTMAGVSLPAPGVPAWAREISDAQWEDVVQKALQARQASPAWK
  protein production: failed

## MFDQYRKTILAGAVALTCGLTAASTFAAGFQPAQPAGKLGAVVVDPYGNAPLTALVELDSHIISDVKVTVHGKGEKGVPVTYTVGKESLETYDGIPIFGLYQKFANNVTVEYKENGKAMKDDYVVQTSAIVNHYMDNRSISDLQQTKVIKVAPGFEDRLYLVNTHTFTPQGAEFHWHGEKDKNAGILDAGPAGGALPFDIAPYTFVVDTQGEYRWWLDQDTFYDGHDMNINKRGYLMGIRETPRGTFTAVQGQHWYEFDMMGQILADHKLPRGFLDASHESIETVNGTVLLRVGKRVTAKKTAYMFILFVTKSLRSISLAALEHHHHHH
  protein production: failed

## MSQTRDLQGGKAFGLLKAQQEERLDEINKQFLDDPKYSSDEDLPSKLEGFKEKYMEFDLNGNGDIDIMSLKRMLEKLGVPKTHLELKKLIGEVSSGSGETFSYPDFLRMMLGKRSAILKMILMYEEKAREKEKPTGPPAKKAISELP
  protein production: failed

## MHIPLWHSRVPSATLSRSHSVLLPLSLTAHSPKRARLVAMSTNPEIPQWFALTPRVWTTSVEPESVTCGLVAGEDHVLLIDTGSTPEQGHTLAMSAARMLGRPVDRIVVTHHHYDHSGGLPGITDAEVWMHEAALAHCPDLHVDHPVSLMAYVNLGGLGAEVIHPGPAHTDGDLIVIVRDEKITFVGDLVETAGEPQSDGTTDVRGWPRAIDSVITGTDGAGLYVPGHGQPIDATDVMNQRAQLAERIPTNIPLTDRHIPLP
  protein production: failed

## MDVEKIPGSVCLVAPHANANPTWPADLAWVKQVLFRMGIKVVATLTHRTPIAEIENIASAETSLLLSHDAGQKAADYLSATFGIEQVCKGIPLEHHHHHH
  protein production: failed

## MVRSCAPHKRKAGRRARLAFGALASHGARENTEVPMRYVLILLLALFGYLLFWPIPVAPVAYHPPETPGFTGDFAENRVLDRAEFVTLPDGEIGPEDLAVMPDGTVYTTSLAGNLYRIDGAVPQLVDRLGGRPLGLKAGPDGALYIADSFRGILRWTAPGEVETVVDQIDGAPVIYANQLDLGRDGTIYFSNSTDRFDPRTLGGTKPTSVMTVWEQSDTGYVARRTPDGRVEKIATGFVYTNGVALSPDEDFLLINETGRARVHRLWLTGDKAGQSEVFLDNLPGYPDNIEAQGDGTYWLAFASPRVPAEALMPYPFLRKVVWRLGPKVRPAPIHRGMLIQFDGTGRILRTVQDPDGRLGITTGGKQVGARFYVMTLDSPGFARMDSADLR
  protein production: failed

## GSSGSSGMKQATRKPTTPGDILLYEYLEPLDLKINELAELLHVHRNSVSALINNNRKLTTEMAFRLAKVFDTTVDFWLNLQAAVDLWEVENNMRTQEELGRIETVAEYLARREERAKKVA
  protein production: not failed
